In patent publication US20170226207A1 (Astellas, published 2017):

T1: human Igβ-Flag protein (human, UniProt P40259 29-159, limits assumed)
T1 construct: Expressed in FreeStyle 293 cells, purified from culture supernatant with anti-Flag M2 gel; not shown: Flag tag
T1 sequence (looked up): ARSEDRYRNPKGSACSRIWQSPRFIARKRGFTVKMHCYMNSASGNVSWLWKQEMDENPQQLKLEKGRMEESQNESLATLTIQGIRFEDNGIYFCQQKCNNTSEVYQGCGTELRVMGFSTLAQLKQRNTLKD

T2: monkey Igβ-Flag protein (monkey)
T2 chain: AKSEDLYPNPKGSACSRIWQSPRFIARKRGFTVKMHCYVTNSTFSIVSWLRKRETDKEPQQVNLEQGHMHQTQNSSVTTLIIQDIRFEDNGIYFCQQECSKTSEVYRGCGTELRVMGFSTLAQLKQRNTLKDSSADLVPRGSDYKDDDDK

T3: human Igβ on human B cells (human, UniProt P40259 29-229)
T3 sequence (looked up): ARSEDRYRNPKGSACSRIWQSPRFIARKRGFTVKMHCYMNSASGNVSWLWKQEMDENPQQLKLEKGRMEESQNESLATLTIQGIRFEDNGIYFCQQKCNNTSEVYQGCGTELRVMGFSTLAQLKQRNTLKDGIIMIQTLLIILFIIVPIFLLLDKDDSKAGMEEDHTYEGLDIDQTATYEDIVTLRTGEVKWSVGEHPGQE


Assays:
human Igβ-Flag protein = target: T1, human Igβ-Flag protein; experiment: antigen ELISA, Igβ-Flag coated on plate, chemiluminescence
Description: (§1) In order to measure the antigen binding activity of the humanized antibody, antigen ELISA was used. The human Igβ-Flag protein acquired in Example 1 was prepared with a tris-buffered saline (TBS; Wako Pure Chemical Industries, Ltd.) so as to have a concentration of 5000 ng/mL, added to a NUNC MaxiSorp white 384 plate (Maxisorp 384 plate: Nunc Corporation) by an amount of 15 μL per well, and then solidified at room temperature for 1 hour. The resultant was washed with TBS-T (0.05% Tween-20 containing TBS: Wako Pure Chemical Industries, Ltd.) twice, 120 μL of a blocking agent (Blocking One: Nacalai tesque, Inc.) was added thereto, the resultant was left at room temperature for 1 hour, and the solution was removed. A dilution series (8 steps with a final concentration of 0.46 ng/mL to 1 μg/mL) of respective humanized antibodies obtained in Example 3 was prepared using a dilute solution obtained by adding the same amount of the blocking agent and TBS and then added thereto by an amount of 15 μL. The resultant was left at room temperature for 1 hour, washed with a TBS-T washing liquid three times, and 20 μL of an horseradish peroxidase (HRP)-labeled rabbit anti-human Ig antibody (Dako Ltd.) which had been diluted 3000-fold with a diluted solution was added thereto. Thereafter, the resultant was left at room temperature for 1 hour and then washed with a TBS-T washing liquid three times. Next, 30 μL of BM-Chemiluminescence ELISA Substrate (POD) (Roche Diagnostics Inc.) which is a chemiluminescence detection reagent was added thereto, and the amount of chemiluminescence thereof was measured by an EnVision counter (PerkinElmer, Co., Ltd.). Using the same method, antigen ELISA assay was performed using the monkey Igβ-Flag protein acquired in Example 1. When the binding activities in respective concentrations of the test antibodies were calculated, the measuring amount of a well to which a test antibody was not added was set to 0% and the convergence value of the maximum activity of the test antibody was set to 100%. The calculated binding activities were analyzed and the EC50 values of the test antibodies were calculated by fitting a curve.

monkey Igβ-Flag protein = target: T2, monkey Igβ-Flag protein; experiment: as above
Description: as §1

[1] = target: T3, human Igβ on human B cells; experiment: cell-based or functional assay

Binder | EC50 (human Igβ-Flag protein) [µg/mL] | EC50 (monkey Igβ-Flag protein) [µg/mL] | proliferation rate of human B cells (anti-IgM antibody-induced) at 30 µg/mL antibody [1] [%]
humanized antibody CL6_40m12_DDW (antibody, human IgG1, kappa, V domains shown, Humanized anti-human Igβ antibody) VH: EVQMVESGGGLVQPGGSLRLSCAVSGFSLSSYSVHWVRQAPGKGLEWVAGIWSGGSIHYTPALSSRFTVSRDDSKNTVYLQMNSLRAEDTAVYYCARYDRYETYAMDYWGQGTLVTVSS VL: DIQLTQSPSSLSASVGDRVTITCKASQSVDYDGDSYMNWYQQKPGKAPKLLIYAASNLESGVPSRFSGSGSGTDFTLTISSLQPEDFATYYCQQSNEDPLTFGQGTKVEIKR | 0.128 | 0.183 | 2.8
humanized antibody CL6_40m16_DDW (antibody, human IgG1, kappa, V domains shown, Humanized anti-human Igβ antibody) VH: EVQLVESGGGLVQPGGSLRLSCAVSGFSLSSYSVHWFRKAPGKGLEWLGGIWSGGSIHYTPALSSRLTVSRDISKNTVYLQMNSLRAEDTAVYYCARYDRYETYAMDYWGQGTLVTVSS VL: DIVLTQSPSSLSASVGDRVTITCKASQSVDYDGDSYMNWYQQKPGKAPKLLIYAASNLESGVPSRFSGSGSGTDFTLTISSLQPEDFATYYCQQSNEDPLTFGQGTKVEIKR | 0.132 | 0.118 | 23.2
humanized antibody CL6_40m14_DDW (antibody, human IgG1, kappa, V domains shown, pyroglutamylation at the N terminal of the heavy chain in most of the purified antibody (glutamine of amino acid number 1 modified to pyroglutamic acid), Humanized anti-human Igβ antibody) VH: QVQMQESGPGLVRPSQTLSLTCTVSGFSLSSYSVHWVRQPPGRGLEWIGGIWSGGSIHYTPALSSRVTVLRDTSKNQVSLRLSSVTAADTAVYYCARYDRYETYAMDYWGQGSLVTVSS VL: DIQLTQSPSSLSASVGDRVTITCKASQSVDYDGDSYMNWYQQKPGKAPKLLIYAASNLESGVPSRFSGSGSGTDFTFTISSLQPEDIATYYCQQSNEDPLTFGQGTKVEIKR | 0.1 | 0.106 | 20.2
